As usually defined, the stoichiometry N is the number of molecules, sites or subunits per partner or assembly.

We go through 1 protein from paper PMC4254994 (PLoS ONE, 2014).

The data set deals with the molecule itself. In words: SEC. (In general: In gel filtration, larger molecules generally elute earlier.)

B1: Bacterial proteasome activator Bpa (Rv3780) of Mycobacterium tuberculosis (natural protein)
chain: MVIGLSTGSDDDDVEVIGGVDPRLIAVQENDSDESSLTDLVEQPAKVMRIGTMIKQLLEEVRAAPLDEASRNRLRDIHATSIRELEDGLAPELREELDRLTLPFNEDAVPSDAELRIAQAQLVGWLEGLFHGIQTALFAQQMAARAQLQQMRQGALPPGVGKSGQHGHGTGQYL
On to B1, for which the “stoichiometry N” value is roughly 6.
